Test results reported in paper PMC5737657 (Nucleic Acids Research, 2017).

B1: VapC26 toxin with N-terminal (His)6 tag (native, co-expressed with VapB26) (natural protein)
chain: MIIDTSALLAYFDAAEPDHAAVSECIDSSADALVVSPYVVAELDYLVATRVGVDAELAVLRELAGGAWELANCGAAEIEQAARIVTKYQDQRIGIADAANVVLADRYRTRTILTLDRRHFSALRPIGGGRFTVIP

How the values were obtained:
[1] = target: B1; experiment: crystal structure
[2] = target: VapB26 Y51E (Mycobacterium tuberculosis, UniProt O53778 1-71, Y51E); experiment: co-purification on a Ni2+ affinity column

Binder | binding result [1] | binding result [2]
VapB26 antitoxin (untagged, native, co-expressed with VapC26) (natural protein) MDKTTVYLPDELKAAVKRAARQRGVSEAQVIRESIRAAVGGAKPPPRGGLYAGSEPIARRVDELLAGFGER | binds | –
B1 | – | binds
